T1: N-terminal FLAG-tagged human ROBO4 extracellular region/domain deletion variant hROBO4-341 (human, UniProt Q8WZ75 341-1007)
T1 construct: On transfected HEK293 cells; also called pCI-FLAG-hROBO4-341; pCI-hROBO4-341
T1 sequence: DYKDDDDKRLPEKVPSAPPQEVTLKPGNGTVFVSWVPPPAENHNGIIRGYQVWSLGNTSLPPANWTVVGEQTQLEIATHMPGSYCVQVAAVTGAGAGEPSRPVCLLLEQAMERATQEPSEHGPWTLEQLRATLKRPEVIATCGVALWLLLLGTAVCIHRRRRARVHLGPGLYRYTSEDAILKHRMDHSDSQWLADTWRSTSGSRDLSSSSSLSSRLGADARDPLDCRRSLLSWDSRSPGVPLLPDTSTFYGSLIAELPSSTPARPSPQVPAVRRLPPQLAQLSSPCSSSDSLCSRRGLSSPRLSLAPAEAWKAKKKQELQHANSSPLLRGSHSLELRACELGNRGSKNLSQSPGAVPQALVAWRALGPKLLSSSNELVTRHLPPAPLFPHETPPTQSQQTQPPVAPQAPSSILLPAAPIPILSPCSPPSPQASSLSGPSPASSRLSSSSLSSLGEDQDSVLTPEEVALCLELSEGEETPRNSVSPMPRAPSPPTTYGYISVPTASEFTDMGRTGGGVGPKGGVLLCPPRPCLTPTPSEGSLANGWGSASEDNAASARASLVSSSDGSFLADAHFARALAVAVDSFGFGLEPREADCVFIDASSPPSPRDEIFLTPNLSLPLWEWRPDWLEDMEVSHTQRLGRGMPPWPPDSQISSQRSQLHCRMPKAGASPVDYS

T2: rat ROBO4 (pCI-raROBO4-transfected HEK293 cells) (rat, UniProt Q80W87 38-949 at identity 0.93))
T2 chain: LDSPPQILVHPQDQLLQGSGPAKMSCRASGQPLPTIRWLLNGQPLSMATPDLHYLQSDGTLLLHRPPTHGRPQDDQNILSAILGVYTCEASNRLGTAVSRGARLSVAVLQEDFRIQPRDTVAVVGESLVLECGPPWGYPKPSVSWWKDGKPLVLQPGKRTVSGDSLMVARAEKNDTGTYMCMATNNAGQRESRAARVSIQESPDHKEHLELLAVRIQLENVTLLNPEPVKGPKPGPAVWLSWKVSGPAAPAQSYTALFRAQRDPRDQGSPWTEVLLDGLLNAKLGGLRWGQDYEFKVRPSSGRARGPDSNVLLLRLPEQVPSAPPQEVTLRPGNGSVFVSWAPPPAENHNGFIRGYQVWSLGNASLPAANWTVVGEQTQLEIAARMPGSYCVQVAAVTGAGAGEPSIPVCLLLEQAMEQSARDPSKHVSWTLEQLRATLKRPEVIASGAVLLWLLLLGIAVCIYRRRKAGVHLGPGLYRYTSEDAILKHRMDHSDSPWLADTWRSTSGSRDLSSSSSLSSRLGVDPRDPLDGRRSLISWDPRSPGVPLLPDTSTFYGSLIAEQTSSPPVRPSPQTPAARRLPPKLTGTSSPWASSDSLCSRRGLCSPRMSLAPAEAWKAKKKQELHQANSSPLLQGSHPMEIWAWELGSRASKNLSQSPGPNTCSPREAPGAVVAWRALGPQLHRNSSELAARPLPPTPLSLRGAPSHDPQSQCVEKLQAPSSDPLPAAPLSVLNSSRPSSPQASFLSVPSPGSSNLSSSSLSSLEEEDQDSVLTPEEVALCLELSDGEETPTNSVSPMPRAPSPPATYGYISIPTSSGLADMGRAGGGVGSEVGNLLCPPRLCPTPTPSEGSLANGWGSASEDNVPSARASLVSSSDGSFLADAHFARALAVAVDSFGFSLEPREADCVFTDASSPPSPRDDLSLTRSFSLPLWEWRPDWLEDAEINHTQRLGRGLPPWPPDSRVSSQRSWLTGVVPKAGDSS

B1: anti-ROBO4 mouse monoclonal antibody MAb1 (antibody, mouse IgG1, V domains shown)
VH: EVQLVESGGGLVKPGGSLKLSCAASGFTFSTYAMSWVRQTPEKRLEWVATISNGGTYTYYPDSVKGRFTISRDNAENTLYLQMSSLRSEDTAMYFCARLIYYDYLDYWGHGTTLTVSS
VL: DAVMTQTPLSLPVSLGDQASISCRSSQSLENSNGNTYLNWYFQKPGQSPQLLIYRVSNRFSGVLDRFSGSGSGTDFTLKISRVEAEDFGVYFCLQVTHVPWTFGGGTKLEIKR
notes: Mouse IgG1 (gamma1), kappa light chain, purified from hybridoma supernatant; also called parent antibody MAb1
B2: humanized MAb1 antibody H-2140 (antibody, human IgG2, kappa, V domains shown)
VH: EVQLVESGGGLVQPGGSLRLSCAASGFTFSTYAMSWVRQAPGKRLEWVATISQGGTYTYYPDSVKGRFTISRDNAKNTLYLQMNSLRAEDTAVYYCARLIYYDYLDYWGQGTLVTVSS
VL: DIVMTQSPLSLPVTLGEPASISCRSSQSLENSNGNTYLNWYLQKPGQSPQLLIYRVSNRFSGVPDRFSGSGSGTDFTLKISRVEAEDVGVYYCLQVTHVPWTFGPGTKVDIKR
notes: Human IgG2 / kappa constant regions; also called hMAb1-H4-type heavy chain + hMAb1-L1-type light chain

What was measured:
[1] = target: T1, N-terminal FLAG-tagged human ROBO4 …; assay: flow cytometry, HEK293 cells transfected with pCI-FLAG-hROBO4-341, anti-mouse IgG FITC; control histogram IgG (Mouse IgG2a)
Description: HEK293 cells were inoculated at a concentration of 1.5×10⁶ cells/dish to a 60-mm dish (manufactured by Corning Inc.) and cultured overnight in a DMEM medium containing 10% FBS at 37° C. under 5% CO₂ conditions. […] On the next day, the expression vector-transfected cells were treated with TrypLE Express (manufactured by Life Technologies Corp.), washed with PBS containing 5% FBS, and then suspended in PBS containing 5% FBS. The obtained cell suspension was used in flow cytometry analysis.
Each cell suspension prepared in 4)-5-1 was centrifuged, and the supernatant was removed. Then, MAb1, a positive control Monoclonal ANTI-FLAG M2 antibody produced in mouse, or a negative control Mouse IgG2a was added at a concentration of 10 μg/mL to 2×10⁵ expression vector-transfected cells, and the resulting suspension was left standing at 4° C. for 1 hour. The cells were washed once with PBS containing 5% FBS. Then, Anti-Mouse IgG FITC conjugate diluted 1000-fold with PBS containing 5% FBS was added thereto, and the resulting suspension was left standing at 4° C. for 1 hour. […] Data was analyzed using Flowjo. The histogram of FITC fluorescence intensity was prepared. The antibody was determined to bind to a cell when the histogram of MAb1 was shifted to a stronger fluorescence intensity region compared with the histogram of the negative control Mouse IgG2a. […]

[2] = target: T2, rat ROBO4 (pCI-raROBO4-transfected …); assay: flow cytometry (FC500), HEK293 cells transfected with pCI-raROBO4, FITC goat anti-human IgG Fc; control histogram IgG (human IgG)

Row | Binder | binding result [1] | binding result [2]
1 | B1 | no binding (tested: 10 µg/mL) | 
2 | B2 |  | no binding (tested: 10 µg/mL)
